Data: patent US20260070940A1 (Hoffmann-La Roche, published 2026)
Several values for one entry are separate records, joined by “and”; a condition that tells them apart may be missing. Equal entries are not always repeated. Values belong to the binder of their own block, whether it stands above or below them.

Key:
[1] = target: T1, human LAG3 on recombinant CHO cells (human, UniProt P18627 23-525); assay: cell ELISA, CHO-LAG3
T1 construct: whole, on cells; also called Lag3 cells
T1 sequence (looked up): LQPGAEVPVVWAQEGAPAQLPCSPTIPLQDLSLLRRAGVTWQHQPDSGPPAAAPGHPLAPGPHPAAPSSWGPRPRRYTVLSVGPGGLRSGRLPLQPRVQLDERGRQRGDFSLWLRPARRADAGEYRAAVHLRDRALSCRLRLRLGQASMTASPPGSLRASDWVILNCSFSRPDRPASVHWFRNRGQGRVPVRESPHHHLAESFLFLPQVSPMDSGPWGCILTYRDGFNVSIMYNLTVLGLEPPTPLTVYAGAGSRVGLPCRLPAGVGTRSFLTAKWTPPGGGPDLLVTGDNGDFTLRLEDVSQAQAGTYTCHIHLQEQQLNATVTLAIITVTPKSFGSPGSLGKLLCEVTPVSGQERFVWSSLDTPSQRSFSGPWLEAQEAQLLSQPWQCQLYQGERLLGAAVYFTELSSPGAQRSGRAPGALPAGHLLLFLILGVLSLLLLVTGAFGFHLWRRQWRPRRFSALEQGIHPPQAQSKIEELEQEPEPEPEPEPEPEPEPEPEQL

[2] = target: T2, soluble human Lag3-IgG1-Fc with biotinylated C-terminal Avi-tag (human, biotin on the Avi-tag); assay: A375 MHCII competition ELISA
T2 construct: Lag3 ECD, IEGRMD linker, IgG1 Fc, Avi-tag; also called LAG3-Fc-avi; biotinylated LAG3-Fc

[3] = target: T3, recombinant human LAG3 Fc Chimera Protein (R&D Systems, 2319-L3) (human, UniProt P18627 23-450); assay: ELISA, coated LAG3 Fc
T3 construct: Bought
T3 sequence (looked up): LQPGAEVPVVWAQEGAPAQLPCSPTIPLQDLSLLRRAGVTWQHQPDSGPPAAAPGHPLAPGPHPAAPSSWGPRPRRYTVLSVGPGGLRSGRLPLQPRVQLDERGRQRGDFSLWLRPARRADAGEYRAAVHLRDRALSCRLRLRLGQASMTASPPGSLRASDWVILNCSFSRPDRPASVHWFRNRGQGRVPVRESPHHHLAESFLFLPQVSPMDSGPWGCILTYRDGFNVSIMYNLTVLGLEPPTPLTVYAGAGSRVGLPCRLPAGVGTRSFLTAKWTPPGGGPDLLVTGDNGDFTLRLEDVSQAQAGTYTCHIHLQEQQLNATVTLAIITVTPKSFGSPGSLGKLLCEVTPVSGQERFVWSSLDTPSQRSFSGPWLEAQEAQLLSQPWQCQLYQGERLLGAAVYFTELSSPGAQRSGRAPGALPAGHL

[4] = target: T3, recombinant human LAG3 Fc Chimera …; assay: SPR, captured aVH-Fc, LAG3 Fc analyte
[5] = target: T4, murine LAG3-Fc antigen (R&D Systems, 3328-L3-050) (murine, UniProt Q61790 24-442); assay: ELISA, murine LAG3-Fc
T4 construct: Bought
T4 sequence (looked up): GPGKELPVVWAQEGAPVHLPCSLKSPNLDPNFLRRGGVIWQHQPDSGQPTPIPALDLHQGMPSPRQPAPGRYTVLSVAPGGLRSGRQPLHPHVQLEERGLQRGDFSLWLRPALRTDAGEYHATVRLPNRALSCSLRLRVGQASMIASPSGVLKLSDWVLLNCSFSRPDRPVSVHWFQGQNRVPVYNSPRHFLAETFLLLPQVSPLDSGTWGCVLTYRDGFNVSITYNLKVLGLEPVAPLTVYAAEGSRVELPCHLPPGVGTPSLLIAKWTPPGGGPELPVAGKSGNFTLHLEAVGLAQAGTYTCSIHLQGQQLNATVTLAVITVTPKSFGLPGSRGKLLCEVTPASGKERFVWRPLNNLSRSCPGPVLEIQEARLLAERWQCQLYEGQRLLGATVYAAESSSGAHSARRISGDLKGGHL

[6] = target: T3, recombinant human LAG3 Fc Chimera …; assay: SPR, captured aVH-Fc, LAG3 Fc analyte; poor fit
[7] = target: T2, soluble human Lag3-IgG1-Fc with …; assay: A375 MHCII competition ELISA, 3 ug/ml
[8] = target: T5, MCSP antigen, amino acids 1553 to 2184 of matured MCSP with C-terminal avi-tag and His-tag, biotinylated (Homo sapiens (Human), UniProt Q6UVK1 1582-2213, limits assumed, biotin on the avi-tag); assay: ELISA, supernatant on biotinylated antigen
T5 construct: also called recombinant MCSP
T5 sequence: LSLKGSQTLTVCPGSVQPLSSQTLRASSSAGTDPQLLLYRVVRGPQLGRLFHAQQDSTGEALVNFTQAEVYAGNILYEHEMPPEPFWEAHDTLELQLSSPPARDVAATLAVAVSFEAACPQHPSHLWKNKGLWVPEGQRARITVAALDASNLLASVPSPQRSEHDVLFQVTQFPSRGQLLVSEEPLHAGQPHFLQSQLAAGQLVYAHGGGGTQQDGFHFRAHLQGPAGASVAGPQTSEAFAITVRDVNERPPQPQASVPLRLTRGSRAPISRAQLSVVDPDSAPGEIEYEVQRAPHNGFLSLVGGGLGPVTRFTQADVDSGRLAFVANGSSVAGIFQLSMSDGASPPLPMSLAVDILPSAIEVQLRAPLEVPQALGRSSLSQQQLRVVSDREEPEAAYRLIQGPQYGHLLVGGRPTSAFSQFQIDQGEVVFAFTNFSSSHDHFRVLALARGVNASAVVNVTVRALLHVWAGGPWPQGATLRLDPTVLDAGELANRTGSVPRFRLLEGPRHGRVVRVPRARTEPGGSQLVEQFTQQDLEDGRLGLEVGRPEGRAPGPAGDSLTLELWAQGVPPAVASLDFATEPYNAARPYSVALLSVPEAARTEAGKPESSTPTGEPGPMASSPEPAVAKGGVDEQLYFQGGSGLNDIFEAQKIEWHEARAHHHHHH

[9] = target: T6, full-length human CD28 with N-terminal SNAP tag on transfected Hek293 cells (human, UniProt P10747 19-220, SNAP tag labelled with terbium); assay: FRET competition, unlabelled against d2-TGN1412 on CD28-SNAP cells; 95% CI in brackets
T6 construct: whole, on cells; also called hu CD28-SNAP

[10] = target: T6, full-length human CD28 with N-terminal …; assay: FRET competition on cells with terbium-labelled hu CD28-SNAP; competitor d2-labelled TGN1412 (0.15 nM), unlabelled TGN1412 IgG titrated

binding result [8]: binds
B2: SEQ ID NO 59 (VHH)
VHH: EVQLVESGGGLVQPGGSLRLSCAASSFNIKDTYIGWVRRAPGKGTELVADIYCSEGSTRYADSVKGRFTISCDTSKNTAYLQMNSLRAEDTAVYYCAAVSDYVVFYYWGQGTTVTVSS
notes: also called MCSP-specific aVH

binding result [8]: binds
B4: SEQ ID NO 61 (VHH)
VHH: EVQLVESGGGLVQPGGSLRLSCAASSFNIKDTYIGWVRRAPGKGTELVAGIYCEAGITRYADSVKGRFTISCDTSKNTAYLQMNSLRAEDTAVYYCAGKGIGNYFDYWGQGTTVTVSS
notes: also called MCSP-specific aVH

The remaining lines, values behind:

B1: P11A2 aVH-Fc, bivalent (PG-LALA) (Fc fusion)
heavy: EVQLVESGGGLVQPGGSLRLSCAASSFNIKDTYIGWVRRAPGKGTELVAEIACHEGTTRYADSVKGRFTISCDTSKNTAYLQMNSLRAEDTAVYYCANTEYDDIFDYWGQGTTVTVSSGGGGSGGGGSDKTHTCPPCPAPEAAGGPSVFLFPPKPKDTLMISRTPEVTCVVVDVSHEDPEVKFNWYVDGVEVHNAKTKPREEQYNSTYRVVSVLTVLHQDWLNGKEYKCKVSNKALGAPIEKTISKAKGQPREPQVYTLPPSRDELTKNQVSLTCLVKGFYPSDIAVEWESNGQPENNYKTTPPVLDSDGSFFLYSKLTVDKSRWQQGNVFSCSVMHEALHNHYTQKSLSLSPGK
EC50 [1]: 0.0169 µg/mL and 0.2 nM | OD max [1]: 1.2 | IC50 [2]: 0.0903 µg/mL and 1.2 nM | OD max [3]: 1.3 | t½ [4]: 2.4 min | binding result [5]: no binding | koff [6]: 0.0048 s⁻¹ | % Inhibition [7]: 92.4%

B3: TGN1412 IgG (antibody, V domains shown)
VH: QVQLVQSGAEVKKPGASVKVSCKASGYTFTSYYIHWVRQAPGQGLEWIGCIYPGNVNTNYNEKFKDRATLTVDTSISTAYMELSRLRSDDTAVYFCTRSHYGLDWNFDVWGQGTTVTVSS
VL: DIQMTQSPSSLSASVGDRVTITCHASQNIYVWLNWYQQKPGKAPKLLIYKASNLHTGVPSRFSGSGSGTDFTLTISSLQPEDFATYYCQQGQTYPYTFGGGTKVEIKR
Ki [9]: 0.28 nM | IC50 (read off the curve) [10]: ~0.6 nM
